Reference: article PMC3800186 (Biochemistry, 2013)
Numbered stars: 1 amine (or outer) side, 2 acyl side, 3 side chain; on linkers, the order of the positions; unused ones are H or OH. Square brackets hold non-standard residues; d marks the D form. Ends that are not written are not given here. X3 = Pro(4S-(4-(4-aminophenyl)-1,2,3-triazol-1-yl)), O=C([C@@H]1C[C@H](n2cc(-c3ccc(N[*:3])cc3)nn2)CN1[*:1])[*:2]; Cit = NC(=O)NCCC[C@H](N)C(=O)O

Biological target: Full-length HIV-1 YU2 gp120 (HIV-1 YU2, UniProt P35961 32-498)
Assay: ELISA

[Cit]NNI[X3]WS-NH2 [UM25 peptide triazole] was tested, and the IC50 was 18 µM.
